Assay results taken from the DeepSol protein solubility set.

Test: soluble on expression in E. coli; label from the status in PepcDB or PDB records

| Sequence | soluble on expression in E. coli |
| --- | --- |
| MIVWSVANQKGGVGKTTTTITLAGLLSQQGKRVLLVDTDPHASLTTYLGYDSDGVPASLFDLFQLREYNEASVKPLILNTDIQGIDLIPAHMSLATLDRVMGNRSGMGLILKRALLALRHVYDYVLIDCPPILGVMMVNALAASDRILIPVQTEFLAMKGLERMVRTLAIMQKSRSREFKVTIVPTMYDKRTRASLQTLNQLKKDYPDKVWTSAVPIDTKFRDASLQRLPASHFAEGSRGVFAYKQLLLFLERLAIDE | not soluble |
| MALTEERVLEALRTVMDPELGKDLVSLGMVDEVRVEGGRVDLLVNLTTPACPLKGQIEADIRRALAPLGAEEVRVRFGGGVRPPERYALPGVKHVVAVASGKGGVGKSTVAANLALALSREGAKVGLLDADLYGPSQAKMFGLEGMRLKVDQDRRILPLEAHGIKVLSIANIVPPGQALAWRGPILHGTLKQFLQDVNWGELDYLVVDLPPGTGDVQLSLSQLTQVSGGVIVTTPQEVALIDAERAADMFRKLQVPVLGVLENMSAFLCPHCGKPTPIFGEGGGRRLAERLKTRFLGEIPLTLALRESGDRGVPVLAQDPEGLEAQAFLKAARELAAALSVQTFLPLPMA | soluble |
| MELMIGRVVKSHGIRGEVAIEVTTEEPEIRFAQGEVLNGRQGGKEHSLTIASVRPHQNRLLVKFKEIADRTAADSLRGTRFFAAPLDDDVDDGFYDHELEGLAVIHGEEKIGEVSGVIHGPAQSLLEVTLESGKEVLIPFVHDIVPEVDLDAGTCVITPPEGLLEL | not soluble |
| GPGSMTSTVTAVNQTQSLAAIRNFVRASVSCITYARGLCSDNAYEQRPFLGLPLRQLIPSTTESITISEWIEKGAFDALNRNYLKEMSLCVYDAACHELLESYCFGFNYTGDGERAQMTLNASQTIADGSKTTAVSQSSGGAVGIPAYRKRRCTKQEVQHLLTSILERLMDVVESLPPLLSERVLTMRLTYYDAVTPASYEPPCFAPASEHMARLYQAEVKHHVNIGSMDTSHHLFSVAIRHPLLQQIHRQMTGRTTSAVATKT | not soluble |
| MAHHHHHHMTDVVEAPRPATVAEAFANTAKALEQFNIERIRVEGLSCKSSITHCRKHDKNNMEKEEDVRTLTEQAFMREFVFQSRPCVIVGALEDWPAMQRWRDDRYLFDLDGHLSRVRRETDDAAAPSSEGTAATGDVAVVPKNNDHDSSDDNTHPREREEEKDGLKRVTVALTPNGRADAVTYVTYQGAREEGRENDVDGKKDNVEEHFIKTEKLFMAAAEIRATLPELYHLLRENPLYPPVRPVFVDLRRPAPVVAYAQMQNNCLEVEYQHLHGDIPPELDRFGERVFGEPHEAANVWFGTPASVSSMHQDWVENLYAVVRGVKEFILLPPWEGVFVPKPELPSAAFSVQRQDGVNGYVFSGTPVHDGLTIPWMDVEFTPAALEDVSLMPTNMQERLHPLVVYVQPGEVLYLPAMWLHRVAQHADDTDRLAREKQLTSSLQSAQDPPLPLIAAVNYWYDMSFTNPAVVMLREFGLLL | soluble |
| VREILSIHVGQCGNQIADSFWRLALREHGLTEAGTLKEGSNAAANSNMEVFFHKVRDGKYVPRAVLVDLEPGVIARIEGGDMSQLFDESSIVRKIPGAANNWARGYNVEGEKVIDQIMNVIDSAVEKTKGLQGFLMTHSIGGGSGSGLGSLILERLRQAYPKKRIFTFSVVPSPLISDSAVEPYNAILTLQRILDNADGAVLLDNEALFRIAKAKLNRSPNYMDLNNIIALIVSSVTASLRFPGKLNTDLSEFVTNLVPFPGNHFLTASFAPMRGAGQEGQVRTNFPDLARETFAQDNFTAAIDWQQGVYLAASALFRGDVKAKDVDENMATIRKSLNYASYMPASGGLKLGYAETAPEGFASSGLALVNHTGIAAVFERLIAQFDIMFDNHAYTHWYENAGVSRDMMAKARNQIATLAQSYRDAS | soluble |
| MIEQPSPKVYDELLSIWEEAVRSTHHFLTEADIQFYKPLIRHEYLAAVRLYIIREDSGTIAAFMGLSNDCIEMLFVRPNAHGHGYGSRLVEFAIRKKRIYKVDVNEQNAAALGFYLHMGFETTGRDALDATGKPFPILHLQIPPIRLRKATLEDIDLLRTLFTQSVQNTCSTDYNRLQIQAWTGRGTLQRWHELFQSDLYFLLAEDSRKSQVAGFTSVNSKGYLHSMFVHPDYQRQGIASRLLLKAEEYVRIRQGVSVYSEVSITARPFFEKHGYSIEKEQTVSVGDIEMTNFLMYKRI | not soluble |
